The source of these data is paper PMC11867700, “TANGO2 is an acyl-CoA binding protein” (The Journal of Cell Biology, 2025).

This series deals with the molecule itself. Description: mass photometry; purified TANGO2.Flag; mass distribution; conditions not described.

B1: TANGO2 isoform 1-Flag (TANGO2.Iso1-Flag), purified (natural protein, human, UniProt Q6ICL3-1 1-276, looked up)
chain: MCIIFFKFDPRPVSKNAYRLILAANRDEFYSRPSKLADFWGNNNEILSGLDMEEGKEGGTWLGISTRGKLAALTNYLQPQLDWQARGRGELVTHFLTTDVDSLSYLKKVSMEGHLYNGFNLIAADLSTAKGDVICYYGNRGEPDPIVLTPGTYGLSNALLETPWRKLCFGKQLFLEAVERSQALPKDVLIASLLDVLNNEEAQLPDPAIEDQGGEYVQPMLSKYAAVCVRCPGYGTRTNTIILVDADGHVTFTERSMMDKDLSHWETRTYEFTLQS
notes: TANGO2 isoform 1, human, UniProt Q6ICL3-1; C-terminal in-frame fusion with the Flag peptide; also called TANGO2.Flag; purified TANGO2
For the protein B1, the binding result is recorded as “binds”.
